The record followed here is patent US20230295258A1.

This test deals with IL-12 receptor of human T cells (human) (UniProt P42701). As to the kind of experiment: cell-based or functional assay.
Chain of IL-12 receptor of human T cells (human) (Q99665 24-862, chain 2 of 2, other chains not shown): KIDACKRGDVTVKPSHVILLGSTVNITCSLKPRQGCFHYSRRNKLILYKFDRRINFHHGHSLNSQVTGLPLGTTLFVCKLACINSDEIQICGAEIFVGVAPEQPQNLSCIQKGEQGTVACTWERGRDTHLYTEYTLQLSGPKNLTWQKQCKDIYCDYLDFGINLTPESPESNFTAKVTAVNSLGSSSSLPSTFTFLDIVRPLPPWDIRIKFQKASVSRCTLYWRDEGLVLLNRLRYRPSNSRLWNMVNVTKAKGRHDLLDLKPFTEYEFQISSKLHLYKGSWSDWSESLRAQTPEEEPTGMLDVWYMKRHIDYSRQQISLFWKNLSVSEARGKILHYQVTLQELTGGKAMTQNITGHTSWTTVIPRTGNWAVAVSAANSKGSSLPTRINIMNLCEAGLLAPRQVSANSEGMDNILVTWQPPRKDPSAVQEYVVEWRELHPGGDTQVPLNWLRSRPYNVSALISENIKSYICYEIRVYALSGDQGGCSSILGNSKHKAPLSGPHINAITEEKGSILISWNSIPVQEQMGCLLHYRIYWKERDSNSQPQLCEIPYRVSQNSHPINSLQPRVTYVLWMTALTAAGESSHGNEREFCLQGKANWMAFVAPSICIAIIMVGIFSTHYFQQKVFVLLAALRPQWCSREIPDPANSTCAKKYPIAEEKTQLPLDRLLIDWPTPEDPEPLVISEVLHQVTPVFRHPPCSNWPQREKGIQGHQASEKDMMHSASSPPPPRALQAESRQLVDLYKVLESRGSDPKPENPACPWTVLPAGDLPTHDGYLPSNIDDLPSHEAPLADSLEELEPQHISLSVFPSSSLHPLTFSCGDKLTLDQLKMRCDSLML

In turn, “recombinant human IL-12 (from UniProt P29459 23-219; P29460 23-328) (ligand)” yielded a half maximal effective concentration (EC50) of p-STAT4 (Tyr693) in activated human T cells, AlphaLISA of 8.95 pM.
